This note sets out measurements from publication PMC11100808.

The target in this assay is biotinylated human CK1δ catalytic domain (CK1δ ΔC) (human) (UniProt P48730). Kind of assay: BLI.

As to “LIN-42 CK1BD + Tail (from UniProt Q65ZG8 402-597) (domain or fragment)”, the equilibrium dissociation constant (Kd) came out at 209 nM. That is a sub-micromolar value.
